In PMC3499403 (PLoS Neglected Tropical Diseases, 2012):

T1: Variant-specific Surface Glycoprotein (VSG) on live bloodstream form T. b. brucei AnTat1.1 (Trypanosoma brucei brucei AnTat1.1 (endogenous in the parasites)) (UniProt P06015)
T1 sequence: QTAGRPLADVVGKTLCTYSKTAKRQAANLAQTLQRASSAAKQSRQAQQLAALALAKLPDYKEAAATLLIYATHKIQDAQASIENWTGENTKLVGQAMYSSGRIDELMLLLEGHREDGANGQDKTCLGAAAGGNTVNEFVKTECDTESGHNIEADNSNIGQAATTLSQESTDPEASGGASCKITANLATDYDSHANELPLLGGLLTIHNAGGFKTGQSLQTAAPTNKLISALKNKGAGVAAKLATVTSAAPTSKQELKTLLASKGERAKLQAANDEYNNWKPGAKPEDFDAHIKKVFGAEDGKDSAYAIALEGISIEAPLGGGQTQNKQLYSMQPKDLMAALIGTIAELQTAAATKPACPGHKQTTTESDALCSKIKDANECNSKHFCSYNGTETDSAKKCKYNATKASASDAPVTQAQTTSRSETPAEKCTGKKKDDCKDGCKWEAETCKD


Assays:
[1] = biological target: T2, Variant-specific Surface Glycoprotein (VSG) on live bloodstream form T. b. brucei AnTat1.1 (Trypanosoma brucei brucei AnTat1.1, UniProt P06015); assay: cell-based or functional assay
[2] = biological target: T3, soluble form of the Variant-specific Surface Glycoprotein (sVSG) of T. b. brucei AnTat1.1 (Trypanosoma brucei brucei AnTat1.1, UniProt P06015); assay: SPR; BIAcore T100; 1000-1500 RU soluble AnTat1.1 VSG amine-coupled on a CM5 chip; Nanobody 500 to 7.8 nM at 30 µl/min in HBS (10 mM Hepes pH 7.5, 150 mM NaCl, 3.5 mM EDTA, 0.005% Tween-20); 1:1 binding model with local Rmax; settings: both partners purified
T3 construct: Variant-specific Surface Glycoprotein (VSG) of Trypanosoma brucei brucei AnTat1.1, soluble form (sVSG); Glycoprotein; amine-coupled to a CM5 chip for SPR; also called AnTat1.1 sVSG; soluble AnTat1.1 VSG

[3] = biological target: T3, soluble form of the Variant-specific …; assay: as above; settings: both partners purified; remark: listed apart in the source
[4] = biological target: T2, Variant-specific Surface Glycoprotein …; assay: cell-based or functional assay; remark: listed apart in the source
[5] = biological target: T1, Variant-specific Surface Glycoprotein (VSG) on live bloodstream form T. b. brucei AnTat1.1 (Trypanosoma brucei brucei AnTat1.1 (endogenous in the parasites))
[6] = biological target: T3, soluble form of the Variant-specific …; assay: SPR; BIAcore T100; 1000-1500 RU soluble AnTat1.1 VSG amine-coupled on a CM5 chip; Nanobody 500 to 7.8 nM at 30 µl/min in HBS (10 mM Hepes pH 7.5, 150 mM NaCl, 3.5 mM EDTA, 0.005% Tween-20); 1:1 binding model with local Rmax; settings: both partners purified; remark: listed apart in the source
[7] = biological target: T2, Variant-specific Surface Glycoprotein …; assay: cell-based or functional assay; remark: listed apart in the source

Binder | trypanotoxic activity (% relative to a non-trypanosome specific Nb), 10 µg/ml Nb, 18 h, 37°C, HMI-9/10% FBS [1] [%] | Kd [2] [nM] | Kd [6] [nM] | koff [6] [s⁻¹] | kon [6] [M⁻¹ s⁻¹] | further results
Nb_An-R4.11 (VHH, From the alpaca sVSG-immune library, cloned in pMES; source: E. coli WK6, purified (Ni-NTA, Superdex 75 gel filtration)) VHH: QVQLQESGGGLVQPGGSLRLSCEGSGFILGYYTIGWFRQAPGKEREGVSCMNSSGRTKYADSVKGRFTISRDNAKNTVYLQMNSLKPEDRAVYFCAADLINLCDSSWLRDGMNYWGKGTQVTVSS | > 80 | 35 | – | – | – | –
Nb_An-R4.71 (VHH, From the alpaca sVSG-immune library, cloned in pMES; source: E. coli WK6, purified (Ni-NTA, Superdex 75 gel filtration)) VHH: QVQLQESGGGLVQPGGSLRLSCAASGFILNYATIAWFRQAPGKEREGVSCISSAFNTNYADSVKGRFAISRDNAKNTVYLQMNSLKPEDTAVYYCAATFGGTSYCSLRPDSSVPYDTWGQGTQVTVSS | > 80 | 7 | – | – | – | –
Nb_An-R3.7 (VHH, From the alpaca sVSG-immune library, cloned in pMES; source: E. coli WK6, purified (Ni-NTA, Superdex 75 gel filtration)) VHH: QVQLQESGGGLVQPGGSLRLSCEASGFILGYYTIGWIRQAPGKEREGVICITSAGGRTNYADSVKGRFTISRDNAKNTVYLQMNSLKPEDTAVYYCAADLINLCDSSWLRDGMNYWGKGTQVTVSS | > 80 | 5 | – | – | – | –
Nb_An-R4.55 (VHH, From the alpaca sVSG-immune library, cloned in pMES; source: E. coli WK6, purified (Ni-NTA, Superdex 75 gel filtration)) VHH: QVQLQESGGGLVQPGGSLRLSCEASGFILGYYTIGWIRQAPGKEREGVICITSAGGRTNYADSVKGRFTISRDNAKNTVYLQMNSLKPEDTAVYYCAADLINLCDSSWLQDGMNYWGKGTQVTVSS | > 80 | 5 | – | – | – | –
Nb_An-R4.80 (VHH, From the alpaca sVSG-immune library, cloned in pMES; source: E. coli WK6, purified (Ni-NTA, Superdex 75 gel filtration)) VHH: QVQLQESGGGLVQPGGSLRLSCEASGFILGYYTIGWIRQAPGKEREGVICITSAGGRTNYADSVKGRFTISRDNAKNTVYLQMNSLKPEDTAVYYCAADLTNLCDSSWLRDGMNYWGKGTQVTVSS | > 80 | 6 | – | – | – | –
Nb_An-R3.92 (VHH, From the alpaca sVSG-immune library, cloned in pMES; source: E. coli WK6, purified (Ni-NTA, Superdex 75 gel filtration)) VHH: QVQLQESGGGLVQAGGSLRLSCEASGFILGYYTIGWFRQAPGKEREGVLCISSAGGRTNYADSVKGRFTISRDNAKNTVYLQMNSLKPEDTAVYYCAADLINLCDSSWWRDGMNYWGKGTQVTVSS | > 80 | 11 | – | – | – | –
Nb_An-R4.29 (VHH, From the alpaca sVSG-immune library, cloned in pMES; source: E. coli WK6, purified (Ni-NTA, Superdex 75 gel filtration)) VHH: QVQLQESGGGLVQPGGSLRLSCEASGFILGYYTIGWFRQAPGKEREGVSCINSSPGTTNYADSVKGRFTISRDNAKNTVYLQMNSLKPEDTAVYYCAADLINLCDSTWVRDGMNFWGKGTQVTVSS | > 80 | 5 | – | – | – | –
Nb_An-R3.68 (VHH, From the alpaca sVSG-immune library, cloned in pMES; source: E. coli WK6, purified (Ni-NTA, Superdex 75 gel filtration)) VHH: QVQLQESGGGLVQPGGSLRLSCAASGGTLSYYAVGWFRQAPGKEREAVSSIRSGGGITVYADSVKGRFTISRDNKKNTVYLQMNGLKPEDTAVYYCAAGLWRWPDHNMLVSGNYDYWGQGTQVTVSS | – | 12 | – | – | – | Kd [3]: 9 nM; trypanotoxic activity (% relative to a non-trypanosome specific Nb), 10 and 20 µg/ml Nb, 18 h, 37°C; value at 20 µg/ml [4]: > 95%
Nb_An33hum1 (VHH) VHH: DVQLVESGGGSVQAGGSLRLSCAVSGSTYSPCTTGWVRQAPGKEREWVSSISSPGTIYYQDSVKGRFTISRDNAKNTVYLQMNSLQREDTGMYYCQIQCGVRSIREYWGQGTQVTVSS | – | – | 1100 | 0.264 | 243000 | Trypanotoxic activity (%), 18 h incubation at 37°C with 20 µg/ml Nb [5]: 0%
Nanobody 33 (Nb_An33), wildtype (VHH) VHH: DVQLVESGGGSVQAGGSLRLSCAVSGSTYSPCTTGWYRQAPGKEREWVSSISSPGTIYYQDSVKGRFTISRDNAKNTVYLQMNSLQREDTGMYYCQIQCGVRSIREYWGQGTQVTVSS | – | – | 28 | 0.021 | 741000 | Trypanotoxic activity (%), 18 h incubation at 37°C with 20 µg/ml Nb [5]: 73%
Nb_An33mut3 (VHH, Conjugated with Alexa Fluor 488 for flow cytometry; source: E. coli WK6, purified (Ni-NTA, Superdex 75 gel filtration)) VHH: DVQLVESGGGSVQAGGSLRLSCAVSGSTYSPCTTGWYRQAPGKEREWVSSISSPGTIYYQDSVKGRFTISRDNAKNTVYLQMNSLQREDTGMYYCQIQCGNDCILEYWGQGTQVTVSS | – | – | 197 | 0.066 | 336000 | Trypanotoxic activity (%), 18 h incubation at 37°C with 20 µg/ml Nb [7]: 24%
Nb_An33hum2 (VHH) VHH: DVQLVESGGGSVQAGGSLRLSCAVSGSTYSPCTTGWVRQAPGKGLEWVSSISSPGTIYYQDSVKGRFTISRDNAKNTVYLQMNSLQREDTGMYYCQIQCGVRSIREYWGQGTQVTVSS | – | – | 540 | 0.15 | 291000 | Trypanotoxic activity (%), 18 h incubation at 37°C with 20 µg/ml Nb [5]: 0%
Nb_An33hum3 (VHH) VHH: DVQLVESGGGSVQAGGSLRLSCAVSGSTYSPCTTGWYRQAPGKGLEWVSSISSPGTIYYQDSVKGRFTISRDNAKNTVYLQMNSLQREDTGMYYCQIQCGVRSIREYWGQGTQVTVSS | – | – | 23.5 | 0.016 | 702000 | Trypanotoxic activity (%), 18 h incubation at 37°C with 20 µg/ml Nb [5]: 57%
Nb_An33mut1 (VHH, Conjugated with Alexa Fluor 488 for flow cytometry; source: E. coli WK6, purified (Ni-NTA, Superdex 75 gel filtration)) VHH: DVQLVESGGGSVQAGGSLRLSCAVSGRALSPCTTGWYRQAPGKEREWVSSISSPGTIYYQDSVKGRFTISRDNAKNTVYLQMNSLQREDTGMYYCQIQCGVRSIREYWGQGTQVTVSS | – | – | 89 | 0.042 | 467000 | Trypanotoxic activity (%), 18 h incubation at 37°C with 20 µg/ml Nb [7]: 33%
Nb_An33mut2 (VHH, Conjugated with Alexa Fluor 488 for flow cytometry; source: E. coli WK6, purified (Ni-NTA, Superdex 75 gel filtration)) VHH: DVQLVESGGGSVQAGGSLRLSCAVSGSTYSPCTTGWYRQAPGKEREWVSSISSPGTIYYQDSVKGRFTISRDNAKNTVYLQMNSLQREDTGMYYCQIQCGFVNINEYWGQGTQVTVSS | – | – | 723 | 0.227 | 314000 | Trypanotoxic activity (%), 18 h incubation at 37°C with 20 µg/ml Nb [7]: 4%
